Entries after “also recorded” stand apart in the source; their conditions may differ.
Legend:
variant RhoA^Val14 = target: T1, variant RhoA^Val14 (Homo sapiens, UniProt P61586, G14V); test: Yeast two-hybrid, N-terminal region of PKN with RhoA^Val14; assay type: binding; settings: yeast L40, histidine requirement
T1 construct: expressed in transfected cells; host or cells: yeast strain L40
Excerpt: (§1) According to a method described in A. B. Vojetk et al. Cell 74, 205-214 (1993), wild type H-Ras, wild type RhoA with C-terminal CAAX structure removed (S. Ando et al. Jikken Igaku 11, 1973-1980 (1993)), and variant RhoA^Val14cDNA fragment, were introduced into pBTM116 vector (A. B. Vojetk et al, ibid.) to construct vectors (designated as pBTM116-RasWT, pBTM116-RhoWT, and pBTM116-Rho^Val14), for expression thereof and LexA as fusion protein in yeast cells, which were then transformed into yeast (strain L40).
(§2) cDNA in N-terminal region (the amino acid sequence 7-155 in SEQ ID NO: 1) of PKN was introduced into BamHI site of pACT vector ([…] Library Kit, manufactured by Clontech Laboratories, Inc.) to construct a vector (designated as pACTIIHK-PKN-N) for expression thereof and GAL4 as fusion protein in yeast cells. The cDNA fragment, used here, corresponding to the N-terminal region of PKN was prepared as described in Example 4 (1).
(§3) Yeast transformed with pBTM116-RasWT, pBTM116-RhoWT, and pBTM116-Rho^Val14 was further transformed with pACTIIHK-PKN-N. Transformants were screened based on histidine requirement (A. B. Vojetk et al, Cell 74, 205-214 (1993).

wild type RhoA = target: T2, wild type RhoA (Homo sapiens, UniProt P61586); test: Yeast two-hybrid, N-terminal region of PKN with wild type RhoA; assay type: binding; settings: yeast L40, histidine requirement
T2 construct: expressed in transfected cells; host or cells: yeast strain L40
Excerpt: as §1, §2, §3

RhoA^Val14 CLVL^− = target: T3, RhoA^Val14 CLVL^− (Homo sapiens, UniProt P61586, G14V); test: Yeast two-hybrid, truncated PKN with RhoA^Val14CLVL^−; assay type: binding; settings: yeast L40
T3 construct: expressed in transfected cells; host or cells: yeast strain L40
Excerpt: The cDNA fragments encoding various length of human PKN were inserted into the vector pBTM116 (Example 7) in frame with the upstream LexA DNA-binding domain sequences or the vector pVP16 (Example 7) in frame with the upstream VP16 transcription activation domain sequences. The cDNA fragments encoding human RhoA, RhoA^Val14, and RhoA^Ala37 were obtained by digesting pGEX-RhoA, pGEX-RhoA^Val14, and pGEX-RhoA^Ala37 (Example 1) with restriction enzymes, respectively, then cloned into pBTM116 and pVP16.
The expression plasmids were transfected into yeast L40 cells and plated on semi-solid media lacking tryptophan and leucine. Interaction was examined using a filter lift assay for the β-galactosidase activity in the same manner as in Example 6. […]

α-actinin (HuActSkl) = test: Yeast two-hybrid, regions of PKN with HuActSkl; assay type: binding, human
Procedure: Schemes of the fusion constructs for human PKN, human skeletal muscle type α-actinin (HuActSkl , designated in (Beggs, A., et al., J. Biol. Chem. 267, 9281-9288 (1992)) and non-skeletal muscle type α-actinin (HuActNm, designated in (Beggs, A., et al., J. Biol. Chem. 267, 9281-9288 (1992)) used in this study are shown in FIGS. 41 and 42. Screening of proteins, which bind to the N-terminal region of human PKN (the amino acid sequence 1-540, this region being designated as “PKNNl”), was performed as described in Example 6. Primary positive clones were recovered and retransfected into the original yeast host strain YGH1 (a, ura3-52, his3-200, ade2-101, lys2-801, trpl-901, leu2-3, Can^r, gal4-542, gal80-538, LYS2::gal1uas-gal1tala-HIS3, URA3::gall-lacZ) in combination with the Gal4bd-PKN or the Gal4bd-p53 tumor suppresser. Plasmids that activated marker expression only in the presence of PKN were analyzed further.
The two-hybrid methods was employed to identify the region of PKN that interacted with HuActSkl , and this region was compared with the binding site for RhoA, which binds to PKN, in vitro and in vivo. […] This region corresponds to the second leucine zipperlike sequence and the N-terminal region adjacent thereto, which is conserved through evolution in vertebrates (Mukai, H., et al., Biochim. Biophys. Acta 1261, 296-300 (1995)). […]

[1] = target: T4, binding of PKN to GTPγS.GST-RhoA (Homo sapiens, UniProt P61586); test: Inhibition of binding between in vitro translated PKN and GTPγS.GST-RhoA by synthetic peptides; settings: concentration-dependent
T4 construct: made in house; PKN 1-474: in vitro translation
Procedure: A protein corresponding to the amino acid sequence 1-474 in SEQ ID NO: 1) was prepared by in vitro translation. GTPγS or GDP.GST-RhoA (15 nM) was incubated with PKN (1.5 μl) prepared by in vitro translation in a total volume of 200 μl of binding buffer (20 mM Tris/HCl at pH 7.5, 1 mM EDTA, 0.5 mM DTT, 5 mM MgCl2 and 1 μg/ml leupeptin) for 60 min at 4° C. Then 40 μl of glutathione-Sepharose 4B (Pharmacia Biotech) preincubated in binding buffer containing 10 mg/ml E. coli extracts to block non-specific binding was added, and the mixture was rotated for 30 min at 4° C. Unbound proteins were removed by four washes with binding buffer containing 0.2% Nonidet P-40 and 50 mM NaCl, and by two washes with binding buffer. Specifically bound proteins were eluted with binding buffer containing 10 mM reduced glutathione and subjected to SDS-PAGE, and the gel was subjected to autoradiography.
Synthetic peptide fragments for potential RhoA binding region of PKN were synthesized with an automated peptide synthesizer (Applied Biosystems, model 431). An experiment using synthetic peptides wes carried out using the peptides in various concentrations in 200 μl of binding buffer.

PKN in Swiss 3T3 cells = assay type: cell-based; settings: 200 ng/ml for 10 min
[2] = target: T5, binding of full-length α-actinin (HuActSkl) to GST-PKNN1 (Homo sapiens, UniProt P35609); test: Effect of PI4,5P2 on in vitro binding between α-actinin and PKN
T5 construct: 2 μl of in vitro translated full-length HuActSkl was mixed with 5 μg of GST-PKNN1 fusion protein; made in house; host or cells: HuActSkl: rabbit reticulocyte lysate; GST-PKNN1: E. coli
Procedure: For analysis of the effect of phosphatidylinositol 4,5 bisphosphate (PI4, 5P2) (Boehringer Mannheim) on the binding between α-actinin and PKN, 2 μl of in vitro translated full-length HuActSkl was mixed with 5 μg of GST-PKNN1 fusion protein or with 25 μg of GST alone in 400 μl of buffer P (20 mM Tris/HCl at pH 7.5, 0.5 mM DTT, 120 mM NaCl, 1 mM EDTA) and incubated for 1 hr at room temperature with or without PI4, 5P2. After addition of 25 μl of glutathione-Sepharose 4B pretreated with E. coli extract, the binding reaction was continued for additional 30 min at 4° C. The glutathione-Sepharose 4B was then washed four times in buffer P containing 0.01% Triton X-100. Bound proteins were eluted with GST elution buffer and were subjected to SDS-PAGE. The binding was visualized and quantitated by an imaging analyzer (FUJI BAS1000).

With “N-terminal region (amino acids 7-155) of PKN: amino acid sequence 7-155 in SEQ ID NO: 1 expressed as GAL4 fusion protein in yeast” the “binding to variant RhoA^Val14” value (variant RhoA^Val14) was “binds” and the “binding to wild type RhoA” value (wild type RhoA) was “binds”.

“amino acid sequence 1-538: truncated human PKN, amino acid sequence 1-538 in SEQ ID NO: 1, two-hybrid fusion” was tested, and the “interaction with RhoA^Val14 CLVL^− (β-galactosidase filter assay)” value (RhoA^Val14 CLVL^−) was “interacted”.

For “amino acid sequence 33-111: truncated human PKN, amino acid sequence 33-111 in SEQ ID NO: 1, Rho protein-binding region”, the “interaction with RhoA^Val14 CLVL^− (β-galactosidase filter assay)” value (RhoA^Val14 CLVL^−) was “interacted” and the “interaction with α-actinin in two-hybrid system” value (α-actinin (HuActSkl)) was “hardly interacted”.

In the case of “amino acid sequence 74-93: synthetic peptide fragment corresponding to the amino acid sequence 74-93 in SEQ ID NO: 1 (ELLLRGSSRRLDLLHQQLQE; UniProt Q16512 74-93, looked up, fragment)”, the “inhibition of binding of PKN to GTPγS.GST-RhoA” value (from here on “inhibition of binding of PKN”) [1] is reported as “inhibited the binding”.

With “amino acid sequence 82-103: synthetic peptide fragment corresponding to the amino acid sequence 82-103 in SEQ ID NO: 1 (RRLDLLHQQLQELHAHVVLPDP; UniProt Q16512 82-103, looked up, fragment)” the “inhibition of binding of PKN” value [1] was “excellent inhibitory activity; also recorded: inhibited the binding”.

“amino acid sequence 94-113: synthetic peptide fragment corresponding to the amino acid sequence 94-113 in SEQ ID NO: 1 (LHAHVVLPDPAATHDGPQSP; UniProt Q16512 94-113, looked up, fragment)” was tested, and the “inhibition of binding of PKN” value [1] was “inhibited the binding”.

In the case of lysophosphatidic acid [LAP], the “stimulation of autophosphorylation of PKN” value (PKN in Swiss 3T3 cells) is reported as “twice”.

“phosphatidylinositol 4,5 bisphosphate [PI4, 5P2]” was tested, and the “effect on binding of full-length α-actinin to PKN” value ([2]; 10 μM) was “stimulated the binding” and the “concentration up to which binding activity was elevated” value ([2]; decreased at higher concentrations up to 100 μM) was 2.5 to 10 µM.

From patent publication US6660837B1, “Modified protein derived from protein kinase N” (Kirin Beer Kabushiki Kaisha, priority 1995, dated 2003)
